Experimental data from US7923230.

How the values were obtained:
[1] = biological target: Amyloid beta (1-40); experiment: SPR (BIAcore); SLF-CR pre-incubated with FKBP passed over immobilized Aβ(1-40); SLF-CR alone gave ~140 RUs; ternary FKBP/drug/Aβ complex
[2] = biological target: Amyloid beta (1-42); experiment: cell-based or functional assay
Sequence of Amyloid beta (1-42) (peptide, as listed by the source): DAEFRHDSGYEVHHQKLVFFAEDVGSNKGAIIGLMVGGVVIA

Sequence of Amyloid beta (1-40) (peptide, as listed by the source): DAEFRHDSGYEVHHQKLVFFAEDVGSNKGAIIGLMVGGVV

Row | Substance | SPR response [1] [RU] | IC50 in thioflavin T aggregation assay (drug concentration, FKBP 1 uM) [2] [nM]
1 | FKBP12 pre-incubated with the bifunctional compound SLF-CR (SLF-Congo red) (from UniProt P62942 2-108) (enzyme) | 230 | 
2 | FKBP12 with the bifunctional compound SLF-Benz-CR (from UniProt P62942 2-108) (enzyme) |  | 50
